Experimental data: patent US20200407435A1 (Boehringer Ingelheim, published 2020)
Several values for one entry are separate records, joined by “and”; a condition that tells them apart may be missing. Identical values can stand only once.

Assays:
[1] = target: T1, rhAngiopoietin-2 (R&D systems cat 623-AN/CF) (human, UniProt O15123 19-496, limits assumed); assay: cell-based or functional assay
T1 sequence (looked up): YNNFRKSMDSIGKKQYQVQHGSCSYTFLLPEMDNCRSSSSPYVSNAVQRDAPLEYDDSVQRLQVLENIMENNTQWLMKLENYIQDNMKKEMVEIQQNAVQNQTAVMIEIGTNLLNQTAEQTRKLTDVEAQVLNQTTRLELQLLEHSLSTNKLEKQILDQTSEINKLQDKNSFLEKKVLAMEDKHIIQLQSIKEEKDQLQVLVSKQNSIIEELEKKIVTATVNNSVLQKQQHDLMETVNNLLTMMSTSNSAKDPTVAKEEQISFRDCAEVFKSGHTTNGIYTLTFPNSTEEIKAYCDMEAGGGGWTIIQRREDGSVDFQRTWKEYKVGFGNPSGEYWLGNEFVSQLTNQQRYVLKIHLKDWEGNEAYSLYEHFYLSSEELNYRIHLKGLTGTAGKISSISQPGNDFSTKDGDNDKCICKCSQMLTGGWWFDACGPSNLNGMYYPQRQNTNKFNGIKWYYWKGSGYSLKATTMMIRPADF

[2] = target: T2, Human ANGPT2 Dimer (CC-FLD) (human, UniProt O15123 74-496, limits assumed); assay: flow cytometry blocking assay: antibody titrated against His-tagged human ANGPT2 dimer (CC-FLD) binding to HEK293 human Tie2 cells
T2 construct: domain: CC-FLD; also called ANGPT2 protein with His-tag; not shown: His-tag
T2 sequence (looked up): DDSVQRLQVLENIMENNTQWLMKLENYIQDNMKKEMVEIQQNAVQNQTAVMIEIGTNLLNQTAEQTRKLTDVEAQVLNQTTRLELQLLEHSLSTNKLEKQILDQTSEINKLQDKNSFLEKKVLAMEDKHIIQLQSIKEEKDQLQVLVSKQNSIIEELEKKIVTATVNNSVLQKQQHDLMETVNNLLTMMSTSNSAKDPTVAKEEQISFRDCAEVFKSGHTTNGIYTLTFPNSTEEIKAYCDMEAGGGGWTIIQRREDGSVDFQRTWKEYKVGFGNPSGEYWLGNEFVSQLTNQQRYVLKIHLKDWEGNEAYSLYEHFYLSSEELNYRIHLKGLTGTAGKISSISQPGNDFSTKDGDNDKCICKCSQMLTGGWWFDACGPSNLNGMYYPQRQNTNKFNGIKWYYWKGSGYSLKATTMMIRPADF
Description: Human ANGPT2 Dimer (CC-FLD) is pre-incubated with the testing antibodies. The ANGPT2/Antibody mixture is then incubated with HEK293 human Tie2 cells at 4° C. After washing, the cells are stained with anti-His-AF647 (from GenScript) for detection of the His-tag on the ANGPT2 protein. The binding of the secondarily labelled ANGPT2 to human Tie2 cells is detected by FLOW cytometry. The average of the duplicate values for each concentration point is used to derive the curve fit graphs. Antibodies that prevent ANGPT2 from binding to the Tie2 cells are considered blocking antibodies. The results are shown in FIGS. 3A-3G and the EC50 values are shown in Table 5 based on the average of duplicate values.

cynomolgus (cyno) ANGPT2 = target: T3, cynomolgus (cyno) ANGPT2 (cynomolgus, UniProt A0A2K5VNX6 275-496); assay: SPR (ProteOn XPR36), antibody captured on Protein A/G, ANGPT2 as analyte, 1:1 Langmuir fit
T3 construct: domain: FLD domain; also called cyno ANGPT2 FLD domain
T3 sequence: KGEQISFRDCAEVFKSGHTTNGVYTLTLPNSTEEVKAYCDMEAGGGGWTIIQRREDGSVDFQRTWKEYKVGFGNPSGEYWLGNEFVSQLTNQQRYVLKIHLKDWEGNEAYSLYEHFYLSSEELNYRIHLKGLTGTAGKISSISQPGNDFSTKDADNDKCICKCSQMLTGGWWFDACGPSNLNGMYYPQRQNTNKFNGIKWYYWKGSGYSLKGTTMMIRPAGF
Description: (§1) The binding affinity to the various ANGPT2 analytes is determined by surface plasmon resonance (SPR) using a ProteOn XPR36 (Bio-Rad). Unless otherwise stated, all reagents are obtained from Bio-Rad. The running buffer for all assays and dilutions (except where stated) is phosphate buffered saline (PBS)/ethylenediamine tetraacetic acid (EDTA) with 0.01% Tween20 (PBS-T-EDTA). PBS-T-EDTA is prepared by adding 100 μl of 100% Tween20 to 2 L of PBS-T-EDTA with an initial concentration of 0.005% Tween20 to make a final Tween20 concentration of 0.01%. The general linearized model (GLM) sensorchip is normalized, pre-conditioned, and activated with an equal mixture of 1-ethyl-3-[3-dimethylaminopropyl]carbodiimide (EDC)/N-hydroxysulfosuccinimide (s-NHS) in the horizontal direction for 300 sec at a flow rate of 30 μl/min. Immobilization is then is done with Recombinant Protein A/G (Thermo Scientific) (60 μg/ml in 10 mM acetate pH 4.5) in the horizontal direction for 300 sec at a flowrate of 30 μl/min resulting in about 4370-4875 response units (RUs) of Protein A/G on the surface. The sensorchip is then deactivated with 1M ethanolamine HCl in the horizontal direction for 300 sec at a flowrate of 30 μl/min. The sensorchip is stabilized with 18 sec of 0.85% phosphoric acid at a flowrate of 100 μl/min 3 times horizontally and 3 times vertically.
(§2) Each ANGPT2 antibody is captured on the Protein A/G surface vertically for 300 sec at a flowrate of 30 μl/min resulting in a capture level of about 2500 RU. The baseline is stabilized by injecting PBS-T-EDTA for 60 sec at a flowrate of 100 μl/min horizontally with dissociation of 120 sec. The analyte (e.g., HuANGPT2) is injected horizontally over the captured antibody for 300 sec at a flowrate of 30 μl/min and a dissociation for 1800 sec. […] The surface is regenerated by injecting 0.85% phosphoric acid for 18 sec at a flowrate of 100 μl/min one time horizontally and one time vertically. PBS-T-EDTA is injected for 60 sec at a flowrate of 100 μl/min one time vertically and one time horizontally.
(§3) The interspot (interactions with sensor surface) and blank (PBS-T-EDTA with 0.01% Tween20 or 0 nM of analyte (here HuANGPT2)) are subtracted from the raw data.

[3] = target: T4, human ANGPT2 (SPR analyte) (human, UniProt O15123 275-496, limits assumed); assay: as above
T4 construct: domain: FLD domain; also called HuANGPT2; human ANGPT2 FLD domain
T4 sequence (looked up): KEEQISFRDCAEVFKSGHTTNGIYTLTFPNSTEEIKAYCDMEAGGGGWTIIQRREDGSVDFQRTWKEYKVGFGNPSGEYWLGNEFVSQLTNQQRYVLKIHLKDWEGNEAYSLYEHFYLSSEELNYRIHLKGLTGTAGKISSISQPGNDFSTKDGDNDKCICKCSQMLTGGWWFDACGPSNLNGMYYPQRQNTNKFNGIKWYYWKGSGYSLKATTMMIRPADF
Description: as §1, §2, §3

rat ANGPT2 = target: T5, rat ANGPT2 (rat, UniProt O35462 275-496, limits assumed); assay: SPR (ProteOn XPR36), antibody captured on Protein A/G, rat ANGPT2 as analyte
T5 construct: domain: FLD domain; also called rat ANGPT2 FLD domain
T5 sequence (looked up): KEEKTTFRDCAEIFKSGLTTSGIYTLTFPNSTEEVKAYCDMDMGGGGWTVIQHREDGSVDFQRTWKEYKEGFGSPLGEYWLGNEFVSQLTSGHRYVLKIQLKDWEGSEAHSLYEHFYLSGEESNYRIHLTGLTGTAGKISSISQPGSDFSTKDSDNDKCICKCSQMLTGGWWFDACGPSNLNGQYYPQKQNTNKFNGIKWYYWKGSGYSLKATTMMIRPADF
Description: as §1
as §2, with “horizontally. […]” for “horizontally.”

Row | Binder | Tie2 phosphorylation functional assay, EC50 [1] | EC50 [2] | Kd (cynomolgus (cyno) ANGPT2) | koff (cynomolgus (cyno) ANGPT2) | kon (cynomolgus (cyno) ANGPT2) | Kd [3] | koff [3] | kon [3] | Kd (rat ANGPT2)
1 | ANGPT2-opt-31 (humanized) (antibody, human IgG1, kappa, V domains shown, also called Ang2-opt-31) VH: QVQLVQSGAEVKKPGSSVKVSCKASGYIFIDYFINWVRQAPGQGLEWMGKIGPGSGSSSSNEKFKGRVTITADKSTSTAYMELSSLRSEDTAVYYCAREAFDYDGDYYGMAYWGQGTLVTVSS VL: EIVMTQSPATLSVSPGERATLSCKSSQSLLSSGNQKSFLAWYQQKPGQAPRLLIYGASTRESGIPARFSGSGSGTEFTLTISSLQSEDFAVYYCQNDHSYPITFGQGTKLEIKR | 3.8 nM and 4.4 nM | 13 nM | 0.145 nM | 1.96e-05 s⁻¹ | 135000 M⁻¹ s⁻¹ | 0.091 nM | 1.14e-05 s⁻¹ | 125000 M⁻¹ s⁻¹ | 
2 | ANGPT2-opt-1 (humanized) (antibody, human IgG1, kappa, V domains shown, also called Ang2-opt-1) VH: QVQLVQSGAEVKKPGSSVKVSCKASGYIFIDYFINWVRQAPGQGLEWMGKIGPGSGSSSSNEKFKGRVTITADKSTSTAYMELSSLRSEDTAVYYCAREAFDYEGDYYGMAYWGQGTLVTVSS VL: EIVMTQSPATLSVSPGERATLSCKSSQSLLASGNQKNFLAWYQQKPGQAPRLLIYGASTRESGIPARFSGSGSGTEFTLTISSLQSEDFAVYYCQNDHSYPITFGQGTKLEIKR | 3 nM and 3.2 nM | 13.2 nM | 0.36 nM | 5.48e-05 s⁻¹ | 152000 M⁻¹ s⁻¹ | 0.294 nM | 4.25e-05 s⁻¹ | 144000 M⁻¹ s⁻¹ | 
3 | ANGPT2-opt-2 (humanized) (antibody, human IgG1, kappa, V domains shown, also called Ang2-opt-2; ANGP12-opt-2) VH: QVQLVQSGAEVKKPGSSVKVSCKASGYIFIEYFINWVRQAPGQGLEWMGKIGPGSGSSSSNEKFKGRVTITADKSTSTAYMELSSLRSEDTAVYYCAREAFDYEGDYYGMAYWGQGTLVTVSS VL: EIVMTQSPATLSVSPGERATLSCKSSQSLLASGNQKNFLAWYQQKPGQAPRLLIYGASTRESGIPARFSGSGSGTEFTLTISSLQSEDFAVYYCQNDHSYPITFGQGTKLEIKR | 1.8 nM and 1.9 nM | 14.8 nM | 0.626 nM | 8.45e-05 s⁻¹ | 135000 M⁻¹ s⁻¹ | 0.649 nM | 8.11e-05 s⁻¹ | 125000 M⁻¹ s⁻¹ | ≥ 118 nM
4 | ANGPT2-opt-19 (humanized) (antibody, human IgG1, kappa, V domains shown, also called Ang2-opt-19) VH: QVQLVQSGAEVKKPGSSVKVSCKASGYIFIDYFINWVRQAPGQGLEWMGKIGPGSGSSSSNEKFKGRVTITADKSTSTAYMELSSLRSEDTAVYYCAREAFDYDGDYYGMAYWGQGTLVTVSS VL: EIVMTQSPATLSVSPGERATLSCRASQSVLSSGNQKSFLAWYQQKPGQAPRLLIYGASTRETGIPARFSGSGSGTEFTLTISSLQSEDFAVYYCQQDHSYPITFGQGTKLEIKR | 5 nM and 4.6 nM | 15.1 nM | 0.844 nM | 7.4e-05 s⁻¹ | 87700 M⁻¹ s⁻¹ | 0.712 nM | 5.83e-05 s⁻¹ | 81800 M⁻¹ s⁻¹ | ≥ 118 nM
5 | MEDI3617 analog (Medimmune) (antibody, human IgG1, kappa, V domains shown, Based on the description in U.S. Pat. No. 8,507,656; also called MED3617 analog; analog of MED3617) VH: QVQLVESGGGVVQPGRSLRLSCAASGFTFTNYGMHWVRQAPGKGLEWVAVISHDGNNKYYVDSVKGRFTISRDNSKNTLYLQMNSLRAEDTAVYYCAREGIDFWSGLNWFDPWGQGTLVTVSS VL: EIVLTQSPGTLSLSPGERATLSCRASQSITGSYLAWYQQKPGQAPRLLITGASSWATGIPDRFSGSGSGTDFTLTISRLEPEDFAVYYCQQYSSSPITFGQGTRLEIKR | 2.7 nM |  |  |  |  | 27 nM | 0.0166 s⁻¹ | 614000 M⁻¹ s⁻¹ | 
6 | LC06 (Roche) (antibody, human IgG1, lambda, V domains shown, Based on the description in U.S. Pat. No. 9,340,609) VH: not shown VL: QPGLTQPPSVSVAPGQTARITCGGNNIGSKSVHWYQQKPGQAPVLVVYDDSDRPSGIPERFSGSNSGNTATLTISRVEAGDEADYYCQVWDSSSDHYVFGTGTKVTVLG | 1.3 nM |  |  |  |  | 12 nM |  |  | 
7 | chimeric lead CL-209881 (antibody, V domains shown, Chimeric antibody with murine variable domains; the constant regions of the tested antibody are not) VH: QVQLKQSGAELVKPGSSVKISCRASGYIFIDYFINWVKQRPGQGLEWIGKIGPGSGSSSSNEKFKGKATLTADKSSSTAYMQLSSLTSEDSAVYFCAREAFDYDGDYYGMAYWGQGTSVTVSS VL: DIVMTQSPSSLSVSAGEKVTMSCKSSQSLLNSGNQKNFLAWYQQKPGQPPKLLIYGASTRESGVPDRFTGSGSGTDFTLTITSVQAEDLAVYYCQNDHSYPITFGSGTKLEIK |  |  | 0.24 nM | 3.93e-05 s⁻¹ | 164000 M⁻¹ s⁻¹ | 0.155 nM | 2.34e-05 s⁻¹ | 151000 M⁻¹ s⁻¹ | 
8 | Nesvacumab analog (Regeneron) (antibody, V domains shown, also called analog of REGN910 (nesvacumab); Nevescumab analog) VH: EVQLVESGGGLVQPGGSLRLSCAASGFTFSSYDIHWVRQATGKGLEWVSAIGPAGDTYYPGSVKGRFTISRENAKNSLYLQMNSLRAGDTAVYYCARGLITFGGLIAPFDYWGQGTLVTVSS VL: EIVLTQSPGTLSLSPGERATLSCRASQSVSSTYLAWYQQKPGQAPRLLIYGASSRATGIPDRFSGSGSGTDFTLTISRLEPEDFAVYYCQHYDNSQTFGQGTKVEIKR |  |  |  |  |  |  |  |  | 0.159 nM
